Assay results published in PMC6326841.
Changes are numbered by the printed parent chain. Numbers in names are those of the source. Values belong to the molecule of their own block, whether it stands above or below them.

Columns and labels:
[1] = target: pyrene-labeled rabbit skeletal muscle F-actin (rabbit) (UniProt P68135); experiment: stopped-flow fluorescence
[2] = target: pyrene-labeled rabbit skeletal muscle F-actin (rabbit) (UniProt P68135); experiment: other fluorescence titration
[3] = target: RLC-depleted porcine cardiac myosin (pig (endogenous in porcine ventricular muscle)) (UniProt P79293); experiment: reconstitution of RLC-depleted skinned muscle strips, SDS-PAGE densitometry
[4] = target: RLC-depleted porcine cardiac myosin (pig (endogenous in porcine ventricular muscle)) (UniProt P79293); experiment: reconstitution of RLC-depleted myosin, SDS-PAGE densitometry

- kobs of actin-myosin dissociation at 10 μM MgATP [1]: 7.29 s⁻¹
- kobs of actin-myosin dissociation at 25 μM MgATP [1]: 14.7 s⁻¹
- kobs of actin-myosin dissociation at 40 μM MgATP [1]: 25.3 s⁻¹
- kobs of actin-myosin dissociation at 80 μM MgATP [1]: 41.5 s⁻¹
- kobs of actin-myosin dissociation at 150 μM MgATP [1]: 74 s⁻¹
- kobs of actin-myosin dissociation at 250 μM MgATP [1]: 111 s⁻¹
- Kd [2]: 3.53 nM
Molecule: porcine cardiac myosin reconstituted with human cardiac S15D-R58Q RLC (from UniProt P79293 1-1935; P10916 1-166) (complex)

- kobs of actin-myosin dissociation at 10 μM MgATP [1]: 8.25 s⁻¹
- kobs of actin-myosin dissociation at 25 μM MgATP [1]: 15.7 s⁻¹
- kobs of actin-myosin dissociation at 40 μM MgATP [1]: 27.3 s⁻¹
- kobs of actin-myosin dissociation at 80 μM MgATP [1]: 48.9 s⁻¹
- kobs of actin-myosin dissociation at 150 μM MgATP [1]: 82.2 s⁻¹
- kobs of actin-myosin dissociation at 250 μM MgATP [1]: 107 s⁻¹
- Kd [2]: 2.13 nM
Molecule: porcine cardiac myosin reconstituted with human cardiac WT RLC (from UniProt P79293 1-1935; P10916 1-166) (complex)

- kobs of actin-myosin dissociation at 10 μM MgATP [1]: 7.26 s⁻¹
- kobs of actin-myosin dissociation at 25 μM MgATP [1]: 15.1 s⁻¹
- kobs of actin-myosin dissociation at 40 μM MgATP [1]: 23.6 s⁻¹
- kobs of actin-myosin dissociation at 80 μM MgATP [1]: 45.6 s⁻¹
- kobs of actin-myosin dissociation at 150 μM MgATP [1]: 69.2 s⁻¹
- kobs of actin-myosin dissociation at 250 μM MgATP [1]: 107 s⁻¹
- Kd [2]: 13.3 nM
Molecule: porcine cardiac myosin reconstituted with human cardiac R58Q RLC (from UniProt P79293 1-1935; P10916 1-166) (complex)

- % RLC Present [3]: 61.3%
- % RLC Present [4]: 87.2%
B1: human ventricular (cardiac) myosin regulatory light chain, wild type (natural protein)
chain: MAPKKAKKRAGGANSNVFSMFEQTQIQEFKEAFTIMDQNRDGFIDKNDLRDTFAALGRVNVKNEEIDEMIKEAPGPINFTVFLTMFGEKLKGADPEETILNAFKVFDPEGKGVLKADYVREMLTTQAERFSKEEVDQMFAAFPPDVTGNLDYKNLVHIITHGEEKD

- % RLC Present [3]: 54%
- % RLC Present [4]: 75.7%
B2: human ventricular myosin regulatory light chain R58Q mutant (natural protein)
chain: B1 chain with R58Q

- % RLC Present [3]: 64.5%
- % RLC Present [4]: 86.9%
B3: human ventricular myosin regulatory light chain S15D-R58Q phosphomimic double mutant (natural protein)
chain: B1 chain with S15D, R58Q
